What follows are sequences tested on Saccharomyces cerevisiae (assay: protein stability index of tFT-peptide fusion in deletion strain of DAS1 (PSI (0-1 scale)); higher = more stable (slower turnover)). Conditions: not given.
Method: (§1)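 MPS profiling in S. cerevisiae of two library types built from selected 12-aa C-degron peptides (IN1, IN2, LN1, LN3, VN2, R1-R5, W1-W3, Atg1 and Rpa12 C-termini): saturation mutagenesis libraries and C-terminal +1 capping libraries (13 aa). Each peptide is fused to the C-terminus of a sfGFP-mCherry timer, after a GGGS linker. Cells are FACS-sorted into 8 mCherry/sfGFP bins and sequenced. PSI runs from 0 (unstable) to 1 (stable), measured once in wild type and in the das1Δ or doa10Δ background.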
With RLIQPLPVQPLN the protein stability index was 0.579. Sequence RLIQPLPYQFLN has a protein stability index of 0.621. With RLIQPLRVQFLN the protein stability index was 0.593. RLIQPLWVQFLN was tested, and the protein stability index was 0.569. RLIQPMPVQFLN gave a protein stability index of 0.607. In the case of RLIQPPPVQFLN, the protein stability index was 0.641. Sequence RLIQPTPVQFLN has a protein stability index of 0.563. RLIQRLPVQFLN gave a protein stability index of 0.646. Sequence RLIQSLPVQFLN has a protein stability index of 0.574. RLIQVLPVQFLN showed a protein stability index of 0.611. In the case of RLISPLPVQFLN, the protein stability index was 0.622. For RLIYPLPVQFLN, the protein stability index was 0.58. For RLWQPLPVQFLN, the protein stability index was 0.608. Sequence RYIQPLPVQFLN has a protein stability index of 0.564. With VAGAVGGWRLVG the protein stability index was 0.681. With VCGAVGGWRLVG the protein stability index was 0.686. VIGAVGGWRLVG showed a protein stability index of 0.689. For VRDAVGGWRLVG, the protein stability index was 0.654. Sequence VRFAVGGWRLVG has a protein stability index of 0.678. VRGAFGGWRLVG showed a protein stability index of 0.668. VRGAHGGWRLVG was tested, and the protein stability index was 0.662. VRGAMGGWRLVG gave a protein stability index of 0.746. VRGASGGWRLVG was tested, and the protein stability index was 0.674. Sequence VRGAVCGWRLVG has a protein stability index of 0.673. VRGAVGGQRLVG showed a protein stability index of 0.677. VRGAVGGVRLVG gave a protein stability index of 0.654. With VRGAVGGWCLVG the protein stability index was 0.674. VRGAVGGWGLVG gave a protein stability index of 0.616. VRGAVGGWPLVG gave a protein stability index of 0.692. VRGAVGGWREVG showed a protein stability index of 0.654. VRGAVGGWRLVGA showed a protein stability index of 0.692. VRGAVGGWRLVGD was tested, and the protein stability index was 0.694. With VRGAVGGWRLVGF the protein stability index was 0.693. Sequence VRGAVGGWRLVGY has a protein stability index of 0.682. Sequence VRGAVGGWRLVK has a protein stability index of 0.689. VRGAVGGWRQVG gave a protein stability index of 0.677. For VRGAVGSWRLVG, the protein stability index was 0.68. In the case of VRGGVGGWRLVG, the protein stability index was 0.683. VRGSVGGWRLVG was tested, and the protein stability index was 0.681. VRGYVGGWRLVG showed a protein stability index of 0.69. Work on VRHAVGGWRLVG yielded a protein stability index of 0.671. Sequence YDKRNHLIKLLN has a protein stability index of 0.581.

These sequences were tested on Saccharomyces cerevisiae (assay: protein stability index of tFT-peptide fusion in wild type (PSI (0-1 scale)); higher = more stable (slower turnover)). Conditions: genetic background: wild type.
Method: as §1
For AATLPMCPLLLR, the protein stability index was 0.377. In the case of AIDLPMCPLLLR, the protein stability index was 0.319. For AIQLPMCPLLLR, the protein stability index was 0.213. Sequence AITLEMCPLLLR has a protein stability index of 0.372. AITLHMCPLLLR gave a protein stability index of 0.271. AITLPCCPLLLR gave a protein stability index of 0.236. AITLPMCNLLLR gave a protein stability index of 0.29. RLIQPLPVQPLN gave a protein stability index of 0.587. RLIQPLPYQFLN gave a protein stability index of 0.0818. RLIQPLRVQFLN showed a protein stability index of 0.06. For RLIQPLWVQFLN, the protein stability index was 0.0634. With RLIQPMPVQFLN the protein stability index was 0.0562. Sequence RLIQPPPVQFLN has a protein stability index of 0.06. In the case of RLIQPTPVQFLN, the protein stability index was 0.192. Work on RLIQRLPVQFLN yielded a protein stability index of 0.0385. In the case of RLIQSLPVQFLN, the protein stability index was 0.0478. With RLIQVLPVQFLN the protein stability index was 0.0583. RLISPLPVQFLN showed a protein stability index of 0.0608. Work on RLIYPLPVQFLN yielded a protein stability index of 0.0272. In the case of RLWQPLPVQFLN, the protein stability index was 0.069. Work on RYIQPLPVQFLN yielded a protein stability index of 0.0617. VAGAVGGWRLVG gave a protein stability index of 0.142. Work on VCGAVGGWRLVG yielded a protein stability index of 0.118. VIGAVGGWRLVG showed a protein stability index of 0.115. For VRDAVGGWRLVG, the protein stability index was 0.172. VRFAVGGWRLVG showed a protein stability index of 0.0977. With VRGAFGGWRLVG the protein stability index was 0.144. Work on VRGAHGGWRLVG yielded a protein stability index of 0.146. VRGAMGGWRLVG showed a protein stability index of 0.202. In the case of VRGASGGWRLVG, the protein stability index was 0.172. With VRGAVCGWRLVG the protein stability index was 0.125. Work on VRGAVGGQRLVG yielded a protein stability index of 0.643. VRGAVGGVRLVG was tested, and the protein stability index was 0.645. VRGAVGGWCLVG showed a protein stability index of 0.441. Work on VRGAVGGWGLVG yielded a protein stability index of 0.28. For VRGAVGGWPLVG, the protein stability index was 0.596. VRGAVGGWREVG gave a protein stability index of 0.504. VRGAVGGWRLVGA gave a protein stability index of 0.524. VRGAVGGWRLVGD was tested, and the protein stability index was 0.646. VRGAVGGWRLVGF gave a protein stability index of 0.666. Work on VRGAVGGWRLVGY yielded a protein stability index of 0.638. In the case of VRGAVGGWRLVK, the protein stability index was 0.668. VRGAVGGWRQVG gave a protein stability index of 0.189. In the case of VRGAVGSWRLVG, the protein stability index was 0.157. In the case of VRGGVGGWRLVG, the protein stability index was 0.206. VRGSVGGWRLVG gave a protein stability index of 0.14. VRGYVGGWRLVG showed a protein stability index of 0.174. VRHAVGGWRLVG gave a protein stability index of 0.116. YDKRNHLIKLLN gave a protein stability index of 0.138.

The sequences below were run on Saccharomyces cerevisiae (assay: protein stability index of tFT-peptide fusion in deletion strain of DOA10 (PSI (0-1 scale)); higher = more stable (slower turnover)). Conditions: not given.
Method: as §1
For AATLPMCPLLLR, the protein stability index was 0.684. AIDLPMCPLLLR gave a protein stability index of 0.651. For AIQLPMCPLLLR, the protein stability index was 0.649. With AITLEMCPLLLR the protein stability index was 0.667. AITLHMCPLLLR was tested, and the protein stability index was 0.62. With AITLPCCPLLLR the protein stability index was 0.659. Work on AITLPMCNLLLR yielded a protein stability index of 0.683.
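Throughout, for protein stability index of tFT-peptide fusion in deletion strain of DAS1: PSI is a weighted mean of each variant's read distribution over the sorted stability bins, computed only for variants having over 10 reads in total.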
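Throughout, for protein stability index of tFT-peptide fusion in deletion strain of DOA10: PSI per variant is the weighted mean of its sequencing read distribution over the sorted stability bins, counting only variants with over 10 reads summed across bins.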
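Throughout, for protein stability index of tFT-peptide fusion in wild type: PSI derived as read-weighted mean over the 8 sorting bins, only variants exceeding 10 total reads kept, mCherry placed adjacent to the peptide and sfGFP distal.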
